Laboratory results: patent publication US9109032

Target: EphA3 antigen (UniProt P29320)
Assay: ELISA

UniProt P29320, sequence (P29320 21-541 limits assumed): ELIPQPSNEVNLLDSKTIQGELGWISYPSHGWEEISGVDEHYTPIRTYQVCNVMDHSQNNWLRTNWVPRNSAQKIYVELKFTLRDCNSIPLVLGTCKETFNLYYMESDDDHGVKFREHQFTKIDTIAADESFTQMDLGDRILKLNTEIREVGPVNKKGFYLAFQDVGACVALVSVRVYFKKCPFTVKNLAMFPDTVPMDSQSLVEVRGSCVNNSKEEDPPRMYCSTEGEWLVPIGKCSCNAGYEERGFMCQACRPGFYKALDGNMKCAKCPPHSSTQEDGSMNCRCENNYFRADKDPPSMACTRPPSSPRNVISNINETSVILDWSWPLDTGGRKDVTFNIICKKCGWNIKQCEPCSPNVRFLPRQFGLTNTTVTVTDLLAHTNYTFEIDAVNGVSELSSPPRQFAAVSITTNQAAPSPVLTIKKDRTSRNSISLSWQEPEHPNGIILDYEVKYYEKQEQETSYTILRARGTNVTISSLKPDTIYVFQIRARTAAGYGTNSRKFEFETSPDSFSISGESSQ

AFFINITY: 2.5 nM
Substance: monoclonal antibody IIIA4
